For orientation: IC50 means the concentration needed to halve the response being measured. Lower therefore signals inhibition by little substance. In general, EC50 refers to the concentration at which the effect is half-maximal.

Results on 14 molecules are retold here after patent US20240116985A1, “STAPLED PEPTIDES AND METHODS THEREOF” (priority 2020, published 2024).

B1: I-982 (peptide)
peptide: Ac-[αAllylPro]D[tBuAla][B5(3)]D[Phe(3-COOH)]AAFF[PyrS2″][3Thi][Bta]S-NH2
modifications: staple 1-4, 4-11; also: earlier eluting HPLC isomer
B2: I-985 (peptide)
peptide: Ac-[αAllylPro]D[tBuAla][B5(3)]D[Phe(3-COOH)]AAFS[PyrS2″][3Thi][Bta]S-NH2
modifications: staple 1-4, 4-11; also: later eluting HPLC isomer
B3: I-979 (peptide)
peptide: Ac-[αAllylPro]D[tBuAla][B5(4)]D[Phe(3-COOH)]AAFS[PyrS2″][3Thi][Bta]Q-NH2
modifications: staple 1-4, 4-11; also: later eluting HPLC staple isomer
B4: I-992 (peptide)
peptide: Ac-[αAllylPro]D[tBuAla][B5(3)]D[TfeGA]AAFF[PyrS2″][Phe(2-Cl)][Bta][hSer]-NH2
modifications: staple 1-4, 4-11
B5: I-981 (peptide)
peptide: Ac-[αAllylPro]D[tBuAla][B5(4)]D[Phe(3-COOH)]AAFT[PyrS2″][3Thi][Bta]Q-NH2
modifications: staple 1-4, 4-11; also: later eluting HPLC staple isomer
B6: I-980 (peptide)
peptide: Ac-[αAllylPro]D[tBuAla][B5(4)]D[Phe(3-COOH)]AAFT[PyrS2″][3Thi][Bta]Q-NH2
modifications: staple 1-4, 4-11; also: earlier eluting HPLC staple isomer
B7: I-984 (peptide)
peptide: Ac-[αAllylPro]D[tBuAla][B5(3)]D[Phe(3-COOH)]AAFS[PyrS2″][3Thi][Bta]S-NH2
modifications: staple 1-4, 4-11; also: earlier eluting HPLC isomer
B8: I-978 (peptide)
peptide: Ac-[αAllylPro]D[tBuAla][B5(4)]D[Phe(3-COOH)]AAFS[PyrS2″][3Thi][Bta]Q-NH2
modifications: staple 1-4, 4-11; also: earlier eluting HPLC staple isomer
B9: I-989 (peptide)
peptide: Ac-[αAllylPro]D[tBuAla][B5(3)]D[TfeGA]AAFF[PyrS2″]Y[Bta]Q-NH2
modifications: staple 1-4, 4-11
B10: I-991 (peptide)
peptide: Ac-[αAllylPro]D[tBuAla][B5(3)]D[TfeGA]AAFF[PyrS2″][Phe(2-Cl)][Bta]T-NH2
modifications: staple 1-4, 4-11
B11: I-983 (peptide)
peptide: Ac-[αAllylPro]D[tBuAla][B5(3)]D[Phe(3-COOH)]AAFF[PyrS2″][3Thi][Bta]S-NH2
modifications: staple 1-4, 4-11; also: later eluting HPLC isomer
B12: I-995 (peptide)
peptide: Ac-[αAllylPro]D[tBuAla][B5(3)]D[TfeGA]AAFS[S8][Phe(2-Cl)][Bta]Q-NH2
modifications: staple 1-4, 4-11
B13: I-1020 (peptide)
peptide: Ac-[αAllylPro]D[tBuAla][B5(5)]DNAAFS[PyrS2″][Phe(2-Cl)][Bta]S-NH2
modifications: staple 1-4, 4-11
B14: I-626 (peptide)
peptide: Ac-[αAllylPro]D[Cha][B5(4)]DEAAFN[S8]F[Bta]-NH2
modifications: staple 1-4, 4-11

Starred links: 1 amine or outer side, 2 acyl side, 3 side chain; linkers in the order of their positions; H or OH if unused. Positions of bridges follow the written chain, without caps; N, C: chain ends. Non-standard residues stand in square brackets, D forms with d. Primed or numbered codes have the meaning given here. PyrS2″ = (S)-3-amino-1-((pent-4-en-1-yloxy)carbonyl)pyrrolidine-3-carboxylic acid (stapling residue), C=CCCCOC(=O)N1CC[C@@](N[*:1])(C(=O)[*:2])C1; B5(4) = 2,2-bis(4-pentenyl)glycine = 2-amino-2-(pent-4-en-1-yl)hept-6-enoic acid (stitching residue), C=CCCCC(CCCC=C)(N[*:1])C(=O)[*:2]; B5(5) = 2,2-bis(4-pentenyl)glycine, 2-amino-2-(pent-4-en-1-yl)hept-6-enoic acid (stitching residue), C=CCCCC(CCCC=C)(N[*:1])C(=O)[*:2]; TfeGA = (S)-2-amino-3-((carboxymethyl)(2,2,2-trifluoroethyl)amino)propanoic acid, O=C([C@H](CN(CC(=O)[*:3])CC(F)(F)F)N[*:1])[*:2]; B5(3) = 2,2-bis(4-pentenyl)glycine (stitching residue), C=CCCCC(CCCC=C)(N[*:1])C(=O)[*:2]; Phe(3-COOH) = N[C@@H](Cc1cccc(C(=O)O)c1)C(=O)O; Phe(2-Cl) = N[C@@H](Cc1ccccc1Cl)C(=O)O; Bta = N[C@@H](Cc1csc2ccccc12)C(=O)O; αAllylPro = C=CC[C@@]1(C(=O)O)CCCN1; tBuAla = CC(C)(C)C[C@H](N)C(=O)O; 3Thi = N[C@@H](Cc1ccsc1)C(=O)O; Cha = N[C@@H](CC1CCCCC1)C(=O)O; S8 = C=CCCCCCC[C@](C)(N)C(=O)O; hSer = N[C@@H](CCO)C(=O)O

One assay has as its target full-length beta-Catenin (Uniprot ID P35222) (Homo sapiens (Human)) (UniProt P35222). Put plainly: fluorescence polarization competition; full-length beta-catenin, competitor probe 5FAM-TCF4(10-53). For orientation: Polarisation of emitted light reports the rotation of a fluorescent probe.
Target sequence in this assay (P35222 2-781 limits assumed): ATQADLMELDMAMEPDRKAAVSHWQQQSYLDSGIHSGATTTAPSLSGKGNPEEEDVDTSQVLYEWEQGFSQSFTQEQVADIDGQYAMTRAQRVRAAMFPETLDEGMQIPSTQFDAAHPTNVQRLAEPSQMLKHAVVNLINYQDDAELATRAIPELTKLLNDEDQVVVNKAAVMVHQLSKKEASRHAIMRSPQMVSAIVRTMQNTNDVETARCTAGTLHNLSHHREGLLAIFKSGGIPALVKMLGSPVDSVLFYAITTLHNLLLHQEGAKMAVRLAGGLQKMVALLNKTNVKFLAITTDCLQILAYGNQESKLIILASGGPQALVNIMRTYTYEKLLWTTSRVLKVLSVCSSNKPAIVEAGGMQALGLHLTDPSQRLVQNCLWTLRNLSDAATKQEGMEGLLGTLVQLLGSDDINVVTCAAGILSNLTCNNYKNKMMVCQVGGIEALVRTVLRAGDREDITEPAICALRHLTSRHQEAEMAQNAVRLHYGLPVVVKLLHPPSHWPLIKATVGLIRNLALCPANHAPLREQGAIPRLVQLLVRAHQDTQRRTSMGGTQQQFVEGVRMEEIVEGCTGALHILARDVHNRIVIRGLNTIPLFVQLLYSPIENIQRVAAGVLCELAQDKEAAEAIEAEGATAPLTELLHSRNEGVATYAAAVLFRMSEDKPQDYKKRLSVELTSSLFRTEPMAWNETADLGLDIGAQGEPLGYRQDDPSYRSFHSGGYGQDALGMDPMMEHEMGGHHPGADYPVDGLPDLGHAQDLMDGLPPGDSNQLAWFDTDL
Consider B1, for which the IC50 amounted to 190 nM.

In the case of B2, the IC50 came to 430 nM.

For the molecule B3, the IC50 turned out to be 240 nM.

B4 yielded an IC50 of 59 nM.

B5: the half-maximal inhibitory concentration (IC50) was found to be 374 nM.

Molecule B6 came in with an IC50 of 221 nM.

On to B7, for which the IC50 stood at 179 nM.

Regarding B8, the IC50 stood at 112 nM.

For B9, the half-maximal inhibitory concentration (IC50) stood at 87 nM.

Molecule B10 displayed an IC50 of 51 nM.

In turn, B11 came in with an IC50 of 118 nM.

Consider B12, for which the IC50 amounted to 55 nM.

For another assay the target is unchanged. Put plainly: fluorescence polarization competition; full-length beta-catenin, competitor 5FAM-TCF4 10-53.
B13 registered an IC50 of 52 nM.

B14 returned an IC50 of 5000 nM.

The target is the same in the next assay. Put plainly: fluorescence polarization competition; full-length beta-catenin with 5FAM-labeled TCF4 (10-53) probe as competitor.
Target sequence in this assay (P35222 whole entry): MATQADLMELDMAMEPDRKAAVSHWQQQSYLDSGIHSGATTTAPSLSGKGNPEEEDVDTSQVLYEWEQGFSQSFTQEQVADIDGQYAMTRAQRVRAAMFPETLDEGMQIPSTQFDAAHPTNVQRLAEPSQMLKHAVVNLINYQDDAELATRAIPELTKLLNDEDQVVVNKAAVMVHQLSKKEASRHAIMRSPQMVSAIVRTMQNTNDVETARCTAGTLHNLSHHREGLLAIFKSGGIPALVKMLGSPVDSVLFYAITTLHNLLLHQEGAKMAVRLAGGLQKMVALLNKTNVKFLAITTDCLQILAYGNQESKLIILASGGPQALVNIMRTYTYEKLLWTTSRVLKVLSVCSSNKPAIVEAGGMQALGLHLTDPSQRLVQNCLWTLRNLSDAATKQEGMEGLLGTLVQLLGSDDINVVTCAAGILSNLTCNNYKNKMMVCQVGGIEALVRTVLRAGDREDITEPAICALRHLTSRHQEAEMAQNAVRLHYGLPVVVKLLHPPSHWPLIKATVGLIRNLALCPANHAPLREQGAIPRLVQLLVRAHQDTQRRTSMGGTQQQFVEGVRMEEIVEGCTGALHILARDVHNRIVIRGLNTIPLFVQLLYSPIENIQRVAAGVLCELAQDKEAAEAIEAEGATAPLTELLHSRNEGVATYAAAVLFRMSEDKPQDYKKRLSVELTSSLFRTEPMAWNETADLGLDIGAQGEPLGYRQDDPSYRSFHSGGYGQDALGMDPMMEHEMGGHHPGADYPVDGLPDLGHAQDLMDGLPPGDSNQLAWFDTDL
B1 showed an EC50 of 190 nM.

B2 had an EC50 of 301 nM.

B3: the EC50 was 240 nM.

In turn, B4 showed an EC50 of 59 nM.

On to B5, for which the EC50 was determined as 199 nM.

For B6, the EC50 was 221 nM.

B7: the EC50 worked out at 179 nM.

Molecule B8 had an EC50 of 112 nM.

B9 came in with an EC50 of 87 nM.

Molecule B10 yielded an EC50 of 51 nM.

Take B11: the EC50 was found to be 118 nM.

Consider B12, for which the EC50 was found to be 55 nM.

A further assay has the same target. Put plainly: fluorescence polarization competition; peptide titrated against 10 nM full-length beta-catenin + 10 nM 5FAM-TCF4(10-53) probe.
Target sequence in this assay (P35222 whole entry): as above
For the molecule B14, the EC50 was determined as 5000 nM.

For the next assay the target is unchanged. Put plainly: fluorescence polarization competition; displaces 5FAM-TCF4(10-53) from full-length beta-catenin.
Target sequence in this assay (P35222 2-781 limits assumed): as the sequence (P35222 2-781 limits assumed) above
Regarding B13, the EC50 is 52 nM.
